According to the supplement of paper PMC7125110:
± gives the standard error. For part of these data: Variants at the floor of the assay were thinned out.

B1: glmS ribozyme (parent)
chain: AUAAAAGCGCCAGAACUACAGAAAUGUAGUUGACGAGGAGGAGGUUUAUCGAAUUUUCGGCGGAUGCCUCCAAA

How the values were obtained:
Details in all cases: with glucosamine-6-phosphate
[1] = variants of: B1; assay: kcat; higher = faster cleavage; RNA array
How it was run: (§1)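 Over ~14 h at 37 °C, tiles were imaged as glucosamine-6-phosphate (40 μM to 10 mM) in HEPES/KCl/Mg(OAc)2 buffer flowed across sequenced MiSeq chips. The chips carried barcoded ribozyme variants transcribed in situ by E. coli RNA polymerase and tracked with a hybridised Cy3 probe. After normalisation to baseline and to non-cleaving reference variants, one- or two-exponential decay fits of per-tile medians gave kobs. kcat and KM followed from weighted Michaelis–Menten fits across concentrations.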

[2] = variants of: B1; assay: self-cleavage kobs at 160 uM GlcN6P; higher = faster cleavage; RNA array
How it was run: as §1

[3] = variants of: B1; assay: self-cleavage kobs at 2500 uM GlcN6P; higher = faster cleavage; RNA array
How it was run: as §1

[4] = variants of: B1; assay: self-cleavage kobs at 40 uM GlcN6P; higher = faster cleavage; RNA array
How it was run: as §1

[5] = variants of: B1; assay: self-cleavage kobs at 640 uM GlcN6P; higher = faster cleavage; RNA array
How it was run: as §1

[6] = variants of: B1; assay: self-cleavage kobs at 10000 uM GlcN6P; higher = faster cleavage; RNA array
How it was run: as §1

[7] = variants of: B1; assay: KM; higher = weaker cofactor use; RNA array
How it was run: as §1

Variant | kcat [1] | self-cleavage kobs at 160 uM GlcN6P [2] | self-cleavage kobs at 2500 uM GlcN6P [3] | self-cleavage kobs at 40 uM GlcN6P [4] | self-cleavage kobs at 640 uM GlcN6P [5] | self-cleavage kobs at 10000 uM GlcN6P [6] | KM [7]
C10A C34U C67G C68G | 4.25e-05 ± 6.7e-06 s⁻¹ | 4.7e-05 ± 8.5e-06 s⁻¹ | 4.25e-05 ± 9.3e-06 s⁻¹ |  |  |  | 
G9C G38C C67A U69C | < 1e-05 s⁻¹ |  |  |  |  |  | 
C10G A14G G32C G37A C67G | 2.2e-05 ± 6.4e-06 s⁻¹ |  |  |  |  |  | 
C10A C71U | < 1e-05 s⁻¹ |  |  |  |  |  | 
G9A U49A A52G | < 1e-05 s⁻¹ |  |  |  |  |  | 
C10A G51U C68G | 4.94e-05 ± 1.5e-05 s⁻¹ | 5.32e-05 ± 2.5e-05 s⁻¹ |  | 3.72e-05 ± 1.7e-05 s⁻¹ | 9.82e-05 ± 3.2e-05 s⁻¹ | 3.4e-05 ± 1.6e-05 s⁻¹ | 
A12G A48G | 2.09e-05 ± 3.3e-06 s⁻¹ |  |  | < 1e-05 s⁻¹ |  |  | 
A12G A15U | 0.000449 ± 5.3e-05 s⁻¹ |  | 0.000123 ± 1.6e-05 s⁻¹ |  | 4.86e-05 ± 6.8e-06 s⁻¹ | 0.000288 ± 2.6e-05 s⁻¹ | 5850 ± 1100 µM
C11A A14G | 0.000935 ± 5.4e-05 s⁻¹ | 7.64e-05 ± 2e-05 s⁻¹ | 0.00051 ± 7.7e-05 s⁻¹ | 1.65e-05 ± 7.4e-06 s⁻¹ | 0.000261 ± 3.2e-05 s⁻¹ | 0.000802 ± 7.8e-05 s⁻¹ | 1790 ± 200 µM
C10G C11A | < 1e-05 s⁻¹ |  |  | < 1e-05 s⁻¹ | < 1e-05 s⁻¹ |  | 
C11G A15U U54A C70A | 3.62e-05 ± 1.5e-05 s⁻¹ |  |  |  | 6.28e-05 ± 2.7e-05 s⁻¹ |  | 
A12C C67U | 0.00763 ± 0.0029 s⁻¹ | 0.000508 ± 5.5e-05 s⁻¹ | 0.00322 ± 0.00048 s⁻¹ | 0.000156 ± 1.3e-05 s⁻¹ | 0.00137 ± 0.0002 s⁻¹ | 0.00923 ± 0.0012 s⁻¹ | 2210 ± 1000 µM
C11A A42G | 0.000337 ± 5.9e-05 s⁻¹ |  | 0.000184 ± 4.7e-05 s⁻¹ |  | 4.77e-05 ± 1.4e-05 s⁻¹ | 0.000239 ± 5e-05 s⁻¹ | 3420 ± 1100 µM
A12C G32A | 0.00031 ± 2.5e-05 s⁻¹ |  | 0.000129 ± 1.8e-05 s⁻¹ |  | 5.72e-05 ± 1e-05 s⁻¹ | 0.000244 ± 3.1e-05 s⁻¹ | 3110 ± 470 µM
A12C G32C | 2.92e-05 ± 1.3e-06 s⁻¹ |  |  | < 1e-05 s⁻¹ |  | 2.2e-05 ± 6.6e-06 s⁻¹ | 3260 ± 500 µM
C11U A39G | 0.00395 ± 0.00067 s⁻¹ | 0.00047 ± 9.6e-05 s⁻¹ | 0.00192 ± 0.00036 s⁻¹ | 7.9e-05 ± 1.3e-05 s⁻¹ | 0.00116 ± 0.00026 s⁻¹ | 0.00358 ± 0.00044 s⁻¹ | 1780 ± 480 µM
A12C C61U | 1.24e-05 ± 3.6e-06 s⁻¹ |  |  | < 1e-05 s⁻¹ |  |  | 
C10G C58A | 1.01e-05 ± 1.8e-06 s⁻¹ |  |  |  | < 1e-05 s⁻¹ | < 1e-05 s⁻¹ | 
C11A C71G | 5.67e-05 ± 6.5e-06 s⁻¹ |  | 4.99e-05 ± 1.2e-05 s⁻¹ |  |  | 5.95e-05 ± 1.3e-05 s⁻¹ | 
C11A C71A | 6.72e-05 ± 2.1e-05 s⁻¹ |  | 2.11e-05 ± 9e-06 s⁻¹ |  |  | 4.87e-05 ± 6.4e-06 s⁻¹ | 
A12C G13C | 6.35e-05 ± 2.1e-06 s⁻¹ |  | 4.89e-05 ± 2.3e-05 s⁻¹ |  |  | 5.73e-05 ± 7.8e-06 s⁻¹ | 1030 ± 240 µM

Variant | kcat [1] | self-cleavage kobs at 160 uM GlcN6P [2] | self-cleavage kobs at 2500 uM GlcN6P [3] | self-cleavage kobs at 40 uM GlcN6P [4] | self-cleavage kobs at 640 uM GlcN6P [5] | self-cleavage kobs at 10000 uM GlcN6P [6] | KM [7]
A12C G41C | 4.9e-05 ± 9.3e-06 s⁻¹ |  | 7.35e-05 ± 3.2e-05 s⁻¹ |  |  | 4.45e-05 ± 1.1e-05 s⁻¹ | 
C10G A15G | 1.16e-05 ± 4e-06 s⁻¹ |  |  |  |  |  | 
G9A G38U | < 1e-05 s⁻¹ |  |  |  | < 1e-05 s⁻¹ |  | 
C11A G60C | < 1e-05 s⁻¹ | < 1e-05 s⁻¹ |  |  |  |  | 
C11A C61G | 1.14e-05 ± 3.7e-06 s⁻¹ |  |  | < 1e-05 s⁻¹ |  |  | 
C11A U56G | 0.00015 ± 3.9e-05 s⁻¹ |  | 7.76e-05 ± 1.1e-05 s⁻¹ |  | 6.35e-05 ± 1.2e-05 s⁻¹ | 0.000155 ± 1.9e-05 s⁻¹ | 
C10U U54G | < 1e-05 s⁻¹ |  |  | < 1e-05 s⁻¹ |  |  | 
C10U U54C | 2.54e-05 ± 7.7e-06 s⁻¹ |  | 3.09e-05 ± 1.2e-05 s⁻¹ | < 1e-05 s⁻¹ |  |  | 
C11U C70U | 0.000987 ± 0.00026 s⁻¹ | 0.000165 ± 2.1e-05 s⁻¹ | 0.000735 ± 9.1e-05 s⁻¹ | 5.88e-05 ± 6.9e-06 s⁻¹ | 0.000397 ± 3.7e-05 s⁻¹ | 0.00165 ± 0.00027 s⁻¹ | 772 ± 320 µM
A12G A53C | 0.000173 ± 3.8e-05 s⁻¹ |  | 7.64e-05 ± 8.5e-06 s⁻¹ |  | 5e-05 ± 6.8e-06 s⁻¹ | 0.000157 ± 1.5e-05 s⁻¹ | 2220 ± 1100 µM
C11U C67U | 0.000394 ± 2.4e-05 s⁻¹ | 5.21e-05 ± 1e-05 s⁻¹ | 0.000278 ± 3e-05 s⁻¹ |  | 0.000171 ± 1.8e-05 s⁻¹ | 0.000364 ± 3.9e-05 s⁻¹ | 925 ± 130 µM
C10A A53G | 1.35e-05 ± 4.5e-06 s⁻¹ | < 1e-05 s⁻¹ |  | < 1e-05 s⁻¹ |  |  | 
G9A C16A | < 1e-05 s⁻¹ |  |  |  |  |  | 31.6 ± 7.6 µM
G9A G37U C70G | 1.52e-05 ± 2.5e-06 s⁻¹ |  | < 1e-05 s⁻¹ |  |  |  | 
A12C A33U | 0.000132 ± 1.7e-05 s⁻¹ |  | 6.22e-05 ± 7.4e-06 s⁻¹ |  |  | 9.81e-05 ± 6.4e-06 s⁻¹ | 3330 ± 1200 µM
A12C A33C | 0.000196 ± 1.6e-05 s⁻¹ |  | 8.11e-05 ± 1.8e-05 s⁻¹ |  | 3.98e-05 ± 9.4e-06 s⁻¹ | 0.000156 ± 1.8e-05 s⁻¹ | 2860 ± 540 µM
C10G A52G U56A C70A | 1.68e-05 ± 4.2e-06 s⁻¹ |  |  |  |  |  | 
C11U A12U G32A | 0.000169 ± 4.7e-05 s⁻¹ |  | 0.000124 ± 3.5e-05 s⁻¹ |  |  | 0.00013 ± 2.5e-05 s⁻¹ | 
C10A U57A | < 1e-05 s⁻¹ |  |  |  | < 1e-05 s⁻¹ |  | 
A12G A14U | 0.000731 ± 0.0002 s⁻¹ |  | 0.000195 ± 1.9e-05 s⁻¹ |  | 8.27e-05 ± 8e-06 s⁻¹ | 0.000524 ± 6.4e-05 s⁻¹ | 5700 ± 2200 µM
